From paper PMC12621184, “Synthesis and Pharmacological Characterization of Nociceptin/Orphanin FQ Dimeric Ligands” (Journal of Medicinal Chemistry, 2025)
Bridge positions count the residues as written; N and C are the ends. Ends that are not written are not given here. Peptide text beside a SMILES is read from it. I, II: the chains in the order shown.

Experiments:
human NOP [1] = molecular target: T1, human NOP (Homo sapiens, UniProt P41146); experiment: Calcium mobilization assay, CHO cells with NOP receptor and chimeric G protein; type: cell-based; set-up: expressed in transfected cells; settings: for EC50: CHO cells coexpressing human NOP and Gαqi5, Fluo-4, 37 °C, mean (CL95%), N = 5 experiments in duplicate, read-out: Ca^2+ mobilization pEC50 (CL95%) (converted); for Ca^2+ mobilization E max ± sem: CHO cells coexpressing human NOP and Gαqi5, maximum change in percentage over baseline fluorescence, mean ± sem, N = 5 in duplicate
Procedure: Chinese hamster ovary (CHO) cells stably coexpressing the human NOP, μ, or κ opioid receptors and the Gαqi5 protein or the human δ and the GαqG66Di5 protein were used in this assay. , Cells were cultured in DMEM/F-12 (1:1) medium supplemented with 10% FBS, 2 mM L-glutamine, […], 100 IU/mL penicillin, and 100 IU/mL streptomycin. Cells were maintained at 37 °C in a humidified atmosphere with 5% CO2 and were seeded at 50 000 cells/well into 96-well black, clear-bottom plates 24 h before test. Loading for 45 min with a solution consisting of HBSS supplemented with 2.5 mM probenecid, 3 μM Fluo-4 AM, and 0.01% pluronic acid ensures the calcium-sensitive dye (Fluo-4) reaches the needed concentration inside the cell, while the exchange of the solution with 100 μL/well of buffer consisting of HBSS with 20 mM HEPES, 2.5 mM probenecid, and 500 μM Brilliant Black allows for fluorescence background to decrease. Serial dilutions of ligands were prepared in HBSS buffer with 20 mM HEPES and 0.02% bovine serum albumin (BSA) to minimize the ligands’ stickiness to plasticware. The automated microplate reader FlexStation II (Molecular Devices, CA, US) was employed at 37 °C to detect changes in fluorescence intensity. The effects of all compounds were expressed as the maximum change in percentage over the baseline fluorescence measured in samples treated with vehicles.
(§1) Concentration-response curves to agonists were analyzed by a four-parameter logistic nonlinear regression model: Effect = baseline + (E max – baseline)/(1 + 10^((logEC50–log[ligand])slope)). […] Experimental data were expressed as mean ± sem of at least 5 experiments. Potency values were expressed as the mean and CL95%. In vitro E max values were analyzed by one-way ANOVA, while in vivo latency data were evaluated by one-way ANOVA followed by Dunnett’s post hoc test. The proportion of mice losing the righting reflex was compared by Fisher’s exact test performed on raw data. GraphPad Prism 10.0 software was used for all of the analyses. The terminology employed is consistent with the International Union of Basic and Clinical Pharmacology (IUPHAR) recommendations. ,

human NOP [2] = molecular target: T1, human NOP; experiment: NOP receptor–G protein interaction BRET assay; type: biochemical; set-up: expressed in transfected cells; host or cells: membranes of HEK293 cells stably coexpressing NOP-RLuc and Gβ1-RGFP; settings: N = 5 experiments in duplicate; for EC50: membranes from HEK293 cells coexpressing NOP-RLuc and Gβ1-RGFP, room temperature, mean (CL95%), read-out: NOP–G protein interaction pEC50 (CL95%) (converted)
Procedure: A BRET interaction assay was used, as previously detailed in ref , to study the propensity of ligands to evoke interaction between the NOP receptor and to G protein. Membranes taken from HEK293 cells stably coexpressing the fusoproteins NOP-RLuc and Gβ1-RGFP were used. Such cells were grown in DMEM medium supplemented with 10% FBS, 2 mM L-glutamine, […] G418, […] hygromycin B, 100 IU/mL penicillin, and 100 IU/mL streptomycin in a humidified atmosphere with 5% CO2 at 37 °C. Cell membranes were thawed and resuspended in PBS supplemented with 0.01% BSA before the assay, and an amount of 3 μg of total protein was dispensed in each of the 96 wells together with 2 μM Prolume Purple Coelenterazine. All experiments were carried out at room temperature. Ligands were added, and averaged BRET ratios from 10 min measurements were computed. BRET ratios were computed as counts per second (CPS) obtained on a Victor Nivo (PerkinElmer) with 405 (10) nm and 510 (30) nm bandpass filters. Vehicles’ BRET ratios were derived from light passed through 510 divided by that passed through 405 filters. Vehicles BRET values were subtracted from all computations, and data sets were normalized as a fraction of N/OFQ maximal effects.
as §1

NOP-RLuc = NOP-RLuc (UniProt P41146); settings: for E max, NOP–G protein interaction (BRET), normalised to N/OFQ-NH2 (E max = 1): scale: fraction of the maximal effect of N/OFQ-NH2
[3] = molecular target: human nociceptin/orphanin FQ (N/OFQ) peptide receptor (human) (UniProt P41146)
human nociceptin/orphanin FQ (N/OFQ) peptide receptor (human), sequence (P41146 whole entry): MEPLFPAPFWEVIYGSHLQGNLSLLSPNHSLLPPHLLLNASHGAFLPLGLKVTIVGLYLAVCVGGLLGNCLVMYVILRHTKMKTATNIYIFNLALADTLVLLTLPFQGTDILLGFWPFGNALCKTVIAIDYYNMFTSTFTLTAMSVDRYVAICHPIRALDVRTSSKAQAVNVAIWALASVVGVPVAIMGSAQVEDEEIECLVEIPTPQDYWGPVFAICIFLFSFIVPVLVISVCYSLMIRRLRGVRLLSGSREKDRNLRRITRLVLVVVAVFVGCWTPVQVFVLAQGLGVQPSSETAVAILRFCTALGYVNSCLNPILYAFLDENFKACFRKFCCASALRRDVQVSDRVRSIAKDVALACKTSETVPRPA

T1 sequence (P41146 whole entry): as above
NOP-RLuc, sequence (P41146 whole entry): as above

Molecule | EC50 (human NOP [1]) | Ca^2+ mobilization E max ± sem (human NOP [1]) | NOP–G protein interaction E max ± sem (human NOP [2]; effects normalized to N/OFQ-NH2 (E max = 1), mean ± sem) | EC50 (human NOP [2]) | pEC50, NOP–G protein interaction (BRET, membranes of HEK293 cells with NOP-RLuc and Gβ1-RGFP) (NOP-RLuc) | E max, NOP–G protein interaction (BRET), normalised to N/OFQ-NH2 (E max = 1) (NOP-RLuc) | E max, Ca^2+ mobilization in CHO cells with human NOP and Gαqi5 (% over baseline) [3] | pEC50, Ca^2+ mobilization in CHO cells with human NOP and Gαqi5 [3]
CC(C)C[C@H](NC(=O)[C@H](CCCCN)NC(=O)[C@H](CCCNC(=N)N)NC(=O)[C@H](C)NC(=O)[C@H](CO)NC(=O)[C@H](CCCCN)NC(=O)[C@H](CCCNC(=N)N)NC(=O)[C@H](CSSC[C@H](NC(=O)CNC(=O)[C@@H](NC(=O)[C@H](Cc1ccccc1)NC(=O)CNC(=O)CNC(=O)[C@@H](N)Cc1ccccc1)[C@@H](C)O)C(=O)N[C@@H](CCCNC(=N)N)C(=O)N[C@@H](CCCCN)C(=O)N[C@@H](CO)C(=O)N[C@@H](C)C(=O)N[C@@H](CCCNC(=N)N)C(=O)N[C@@H](CCCCN)C(=O)N[C@@H](CC(C)C)C(=O)N[C@@H](C)C(=O)N[C@@H](CC(N)=O)C(=O)N[C@@H](CCC(N)=O)C(N)=O)NC(=O)CNC(=O)[C@@H](NC(=O)[C@H](Cc1ccccc1)NC(=O)CNC(=O)CNC(=O)[C@@H](N)Cc1ccccc1)[C@@H](C)O)C(=O)N[C@@H](C)C(=O)N[C@@H](CC(N)=O)C(=O)N[C@@H](CCC(N)=O)C(N)=O [1a, [[Cys^7]N/OFQ-NH2]2] (I: H-FGGFTGCRKSARKLANQ-NH2 / II: H-FGGFTGCRKSARKLANQ-NH2; disulfide I:7-II:7) | 26.9 nM | 293 ± 18 % over the baseline | 1.09 ± 0.09 | 1.95 nM | – | – | – | –
CC(C)C[C@H](NC(=O)[C@H](CCCCN)NC(=O)[C@H](CCCNC(=N)N)NC(=O)[C@H](C)NC(=O)[C@H](CO)NC(=O)[C@H](CCCCN)NC(=O)[C@H](CSSC[C@H](NC(=O)[C@H](C)NC(=O)CNC(=O)[C@@H](NC(=O)[C@H](Cc1ccccc1)NC(=O)CNC(=O)CNC(=O)[C@@H](N)Cc1ccccc1)[C@@H](C)O)C(=O)N[C@@H](CCCCN)C(=O)N[C@@H](CO)C(=O)N[C@@H](C)C(=O)N[C@@H](CCCNC(=N)N)C(=O)N[C@@H](CCCCN)C(=O)N[C@@H](CC(C)C)C(=O)N[C@@H](C)C(=O)N[C@@H](CC(N)=O)C(=O)N[C@@H](CCC(N)=O)C(N)=O)NC(=O)[C@H](C)NC(=O)CNC(=O)[C@@H](NC(=O)[C@H](Cc1ccccc1)NC(=O)CNC(=O)CNC(=O)[C@@H](N)Cc1ccccc1)[C@@H](C)O)C(=O)N[C@@H](C)C(=O)N[C@@H](CC(N)=O)C(=O)N[C@@H](CCC(N)=O)C(N)=O [1b, [[Cys^8]N/OFQ-NH2]2] (I: H-FGGFTGACKSARKLANQ-NH2 / II: H-FGGFTGACKSARKLANQ-NH2; disulfide I:8-II:8) | 43.7 nM | 322 ± 20 % over the baseline | – | 9.12 nM | – | – | – | –
CC(C)C[C@H](NC(=O)[C@H](CCCCN)NC(=O)[C@H](CCCNC(=N)N)NC(=O)[C@H](C)NC(=O)[C@H](CO)NC(=O)[C@H](CSSC[C@H](NC(=O)[C@H](CCCNC(=N)N)NC(=O)[C@H](C)NC(=O)CNC(=O)[C@@H](NC(=O)[C@H](Cc1ccccc1)NC(=O)CNC(=O)CNC(=O)[C@@H](N)Cc1ccccc1)[C@@H](C)O)C(=O)N[C@@H](CO)C(=O)N[C@@H](C)C(=O)N[C@@H](CCCNC(=N)N)C(=O)N[C@@H](CCCCN)C(=O)N[C@@H](CC(C)C)C(=O)N[C@@H](C)C(=O)N[C@@H](CC(N)=O)C(=O)N[C@@H](CCC(N)=O)C(N)=O)NC(=O)[C@H](CCCNC(=N)N)NC(=O)[C@H](C)NC(=O)CNC(=O)[C@@H](NC(=O)[C@H](Cc1ccccc1)NC(=O)CNC(=O)CNC(=O)[C@@H](N)Cc1ccccc1)[C@@H](C)O)C(=O)N[C@@H](C)C(=O)N[C@@H](CC(N)=O)C(=O)N[C@@H](CCC(N)=O)C(N)=O [1c, [[Cys^9]N/OFQ-NH2]2] (I: H-FGGFTGARCSARKLANQ-NH2 / II: H-FGGFTGARCSARKLANQ-NH2; disulfide I:9-II:9) | 5.01 nM | 289 ± 18 % over the baseline | – | 1.35 nM | – | – | – | –
FGGFTGARKCARKLANQ-NH2 (also: homodimer: Cys10-Cys10 disulfide to second copy) [[[Cys^10]N/OFQ-NH2]2] | – | – | – | – | 9.85 pEC50 | 1.07 | 305 | 8.72 pEC50
FGGFTGCRKSARKLANQ-NH2 (also: homodimer: Cys7-Cys7 disulfide to second copy) [[[Cys^7]N/OFQ-NH2]2] | – | – | – | – | 8.71 pEC50 | 1.09 | 293 | 7.57 pEC50
FGGFTGARKSARKLCNQ-NH2 (also: homodimer: Cys15-Cys15 disulfide to second copy) [[[Cys^15]N/OFQ-NH2]2] | – | – | – | – | 9.71 pEC50 | 0.95 | 297 | 8.53 pEC50
FGGFTGARKSACKLANQ-NH2 (also: homodimer: Cys12-Cys12 disulfide to second copy) [[[Cys^12]N/OFQ-NH2]2] | – | – | – | – | 8.9 pEC50 | 1.07 | 346 | 8.52 pEC50
FGGFTGARKSARCLANQ-NH2 (also: homodimer: Cys13-Cys13 disulfide to second copy) [[[Cys^13]N/OFQ-NH2]2] | – | – | – | – | 9.52 pEC50 | 0.84 | 247 | 8.79 pEC50
FGGFTGARCSARKLANQ-NH2 (also: homodimer: Cys9-Cys9 disulfide to second copy) [[[Cys^9]N/OFQ-NH2]2] | – | – | – | – | 8.87 pEC50 | 1.03 | 289 | 8.3 pEC50
FGGFTGARKSARKLACQ-NH2 (also: homodimer: Cys16-Cys16 disulfide to second copy) [[[Cys^16]N/OFQ-NH2]2] | – | – | – | – | 9.76 pEC50 | 0.98 | 312 | 8.86 pEC50
FGGFTGACKSARKLANQ-NH2 (also: homodimer: Cys8-Cys8 disulfide to second copy) [[[Cys^8]N/OFQ-NH2]2] | – | – | – | – | 8.04 pEC50 | 1.04 | 322 | 7.36 pEC50
